Data: the RNAGym collection of RNA variant scans (doi:10.7554/elife.80360)

B1: Twister Ribozyme (parent)
chain: AACACUGCCAAUGCCGGUCCCAAGCCCGGAUAAAAGUGGAGGGGGCGG

Variants of: B1
Test: self-cleavage, relative activity (ratio to wild type); higher = more cleavage; co-transcriptional

Variant | self-cleavage
AACACUGCCAAUGCCGGUCCCAAGCCCGGAUAAAAGUGGCGGUGGCGG | 0.136
AACACUGCCAAUGCCGGUCCCAAGCCCGGAUAAAAGUGGCGGAGGCGG | 0.138
AACACUGCCAAUGCCGGUCCCAAGCCCGGAUAAAAGUGGAUGUGGCGG | 0.147
AACACUGCCAAUGCCGGUCCCAAGCCCGGAUAAAAGUGGCGGGCGCGG | 0.226
AACACUGCCAAUGCCGGUCCCAAGCCCGGAUAAAAGUGUAGGGGACGG | 0.151
AACACUGCCAAUGCCGGUCCCAAGCCCGGAUAAAAGUGUAGGGGUCGG | 0.141
AACACUGCCAAUGCCGGUCCCAAGCCCGGAUAAAAGUGUUGGGGGCGG | 0.158
AACACUGCCAAUGCCGGUCCCAAGCCCGGAUAAAAGUGUGGGGGGCGG | 0.128
AACACUGCCAAUGCCGGUCCCAAGCCCGGAUAAAAGUGUCGGGGGCGG | 0.134
AACACUGCCAAUGCCGGUCCCAAGCCCGGAUAAAAGUGGGGGGGGCCG | 0.192
AACACUGCCAAUGCCGGUCCCAAGCCCGGAUAAAAGUGGGGGGGGCAG | 0.102
AACACUGCCAAUGCCGGUCCCAAGCCCGGAUAAAAGUGGAGAGGUCGG | 0.153
AACACUGCCAAUGCCGGUCCCAAGCCCGGAUAAAAGUGGAGAGGCCGG | 0.187
AACACUGCCAAUGCCGGUCCCAAGCCCGGAUAAAAGUGGGGGGGACGG | 0.146
AACACUGCCAAUGCCGGUCCCAAGCCCGGAUAAAAGUGUAGGGGGCUG | 0.187
AACACUGCCAAUGCCGGUCCCAAGCCCGGAUAAAAGUGGCGGGGGAGG | 0.202
AACACUGCCAAUGCCGGUCCCAAGCCCGGAUAAAAGUGGCGGGGGCUG | 0.228
AACACUGCCAAUGCCGGUCCCAAGCCCGGAUAAAAGUGGAACGGGCGG | 0.094
AACACUGCCAAUGCCGGUCCCAAGCCCGGAUAAAAGUGGAAUGGGCGG | 0.156
AACACUGCCAAUGCCGGUCCCAAGCCCGGAUAAAAGUGGAAAGGGCGG | 0.129
AACACUGCCAAUGCCGGUCCCAAGCCCGGAUAAAAGUGGAGAGCGCGG | 0.178
AACACUGCCAAUGCCGGUCCCAAGCCCGGAUAAAAGUGGAGAGUGCGG | 0.173
AACACUGCCAAUGCCGGUCCCAAGCCCGGAUAAAAGUGGAGAGAGCGG | 0.377
AACACUGCCAAUGCCGGUCCCAAGCCCGGAUAAAAGUGUAGGAGGCGG | 0.138
AACACUGCCAAUGCCGGUCCCAAGCCCGGAUAAAAGUGUAGGCGGCGG | 0.132
AACACUGCCAAUGCCGGUCCCAAGCCCGGAUAAAAGUGGACGGGGAGG | 0.254
AACACUGCCAAUGCCGGUCCCAAGCCCGGAUAAAAGUGGACGGGGGGG | 0.286

Variant | self-cleavage
AACACUGCCAAUGCCGGUCCCAAGCCCGGAUAAAAGUGGCCGGGGCGG | 0.15
AACACUGCCAAUGCCGGUCCCAAGCCCGGAUAAAAGUGGGGGGGGCGU | 0.131
AACACUGCCAAUGCCGGUCCCAAGCCCGGAUAAAAGUGGAAGGGGCUG | 0.236
AACACUGCCAAUGCCGGUCCCAAGCCCGGAUAAAAGUGUAGGGCGCGG | 0.155
AACACUGCCAAUGCCGGUCCCAAGCCCGGAUAAAAGUGUAGGGAGCGG | 0.15
AACACUGCCAAUGCCGGUCCCAAGCCCGGAUAAAAGUGGAGACGGCGG | 0.113
AACACUGCCAAUGCCGGUCCCAAGCCCGGAUAAAAGUGUAGGGGGCGA | 0.156
AACACUGCCAAUGCCGGUCCCAAGCCCGGAUAAAAGUGUAGGGGGCGC | 0.265
AACACUGCCAAUGCCGGUCCCAAGCCCGGAUAAAAGUGUAGCGGGCGG | 0.133
AACACUGCCAAUGCCGGUCCCAAGCCCGGAUAAAAGUGGCGGGGGCGA | 0.192
AACACUGCCAAUGCCGGUCCCAAGCCCGGAUAAAAGUGGCGGGGGCGU | 0.284
AACACUGCCAAUGCCGGUCCCAAGCCCGGAUAAAAGUGGUUGGGGCGG | 0.145
AACACUGCCAAUGCCGGUCCCAAGCCCGGAUAAAAGUGGUCGGGGCGG | 0.17
AACACUGCCAAUGCCGGUCCCAAGCCCGGAUAAAAGUGCAGCGGGCGG | 0.129
AACACUGCCAAUGCCGGUCCCAAGCCCGGAUAAAAGUGCAGUGGGCGG | 0.144
AACACUGCCAAUGCCGGUCCCAAGCCCGGAUAAAAGUGGAUGGGGGGG | 0.509
AACACUGCCAAUGCCGGUCCCAAGCCCGGAUAAAAGUGGAUGGGGUGG | 0.68
AACACUGCCAAUGCCGGUCCCAAGCCCGGAUAAAAGUGGAGAGGGAGG | 0.251
AACACUGCCAAUGCCGGUCCCAAGCCCGGAUAAAAGUGGAGAGGGUGG | 0.349
AACACUGCCAAUGCCGGUCCCAAGCCCGGAUAAAAGUGGAUGGGUCGG | 0.25
AACACUGCCAAUGCCGGUCCCAAGCCCGGAUAAAAGUGGUGGGGGGGG | 0.16
AACACUGCCAAUGCCGGUCCCAAGCCCGGAUAAAAGUGGUGGGGGUGG | 0.163
AACACUGCCAAUGCCGGUCCCAAGCCCGGAUAAAAGUGGGUGGGGCGG | 0.166
AACACUGCCAAUGCCGGUCCCAAGCCCGGAUAAAAGUGGACGGGGCUG | 0.149
AACACUGCCAAUGCCGGUCCCAAGCCCGGAUAAAAGUGGACGGUGCGG | 0.147
AACACUGCCAAUGCCGGUCCCAAGCCCGGAUAAAAGUGGCGUGGGCGG | 0.139
AACACUGCCAAUGCCGGUCCCAAGCCCGGAUAAAAGUGGCGAGGGCGG | 0.152
